B1: DR591 Mono-Fc VHH (Fc fusion)
chain: QVQLQESGGGSVQAGGSLRLSCTASGAIASGYIDSRWCMAWFRQAPGKEREGVAAIWPGGGLTVYADSVKGRFTISRDHAKNTLYLQMNNLKPEDTAMYYCAAGSPRMCPSLEFGFDYWGQGTQVTVSS
notes: Mono-Fc format is not described further; also called anti-hGP130 Mono-Fc VHH; not shown: Fc part of the Mono-Fc format
B2: DR593 Mono-Fc VHH (Fc fusion)
chain: QVQLQESGGGSVQAGGSLRLSCAASGYPYSNGYMGWFRQAPGKEREGVATIYTGDGRTYYADSVKGRFTISRDNAKNTVDLQMSSLKPEDTAMYYCAARAAPLYSSGSPLTRARYNVWGQGTQVTVSS
notes: as for B1
B3: DR594 Mono-Fc VHH (Fc fusion)
chain: QVQLQESGGGSVQAGGSLRLSCVASASTYCTYDMHWYRQAPGKGREFVSAIDSDGTTRYADSVKGRFTISQGTAKNTVYLQMNSLQPEDTAMYYCKTVCVVGSRWSDYWGQGTQVTVSS
notes: as for B1
B4: DR595 Mono-Fc VHH (Fc fusion)
chain: QVQLQESGGGSVQAGGSLTLSCAASEYAYSTCNMGWYRQAPGKERELVSAFISDGSTYYADSVKGRFTITRDNAKNTVYLQMNSLKPEDTAIYYCSANCYRRLRNYWGQGTQVTVSS
notes: as for B1
B5: DR596 Mono-Fc VHH (Fc fusion)
chain: QVQLQESGGGLVQPGGSLRLSCTASGLTFDDSVMGWFRQAPGKGREAVSCISSSGANAFYADSVKGRFTISRDNAKNTLYLQMNSLKPEDTATYYCKRGHACAGYYPIPYDDYWGQGTQVTVSS
notes: as for B1
B6: DR592 Mono-Fc VHH (Fc fusion)
chain: QVQLQESGGGSVQAGGSLRLSCTAPGFTSNSCGMDWYRQAPGKEREFVSSISTDGTTGYADSVKGRFTISKDKAKDTVYLQMNSLKPEDTGMYSCKTKDGTIATMELCDFGYWGQGTQVTVSS
notes: as for B1
B7: mgp130_VHH48 Mono-Fc VHH (Fc fusion, not shown: a dimerising Fc or GST)
chain: QVQLQESGGALVQPGGSLRLSCAASGFTFSYYAMKWVRQAPGKGLEWVSSISGGGGATYYADSVKGRFTISRDNTNDTLYLQMNSLKTEDTAVYYCAAQNLDYRGQGTQVTVSS
B8: mgp130_VHH44 Mono-Fc VHH (Fc fusion, not shown: a dimerising Fc or GST)
chain: QVQLQESGGGLVQPGGSLRLSCTASGFTFNSAHLKWERQPPGKGLEWVSFITNGGASTGYADSVKGRFTISRDDAKNTLYLQMNNLKTEDTAVYYCATGGLRGQGTQVTVSS
B9: mgp130_VHH6 Mono-Fc VHH (Fc fusion, not shown: a dimerising Fc or GST)
chain: QVQLQESGGGLVQPGGSLRLSCAASGFTLSTYWMYWVRQAPGKGPEWVSAVSRGGFNTYYADSVKGRFTISRDNAKNTVYLQMNSLKPEDTAVYYCMSSVSFYGWPPDRVPSPTGQGTQVTVSS
B10: mgp130_VHH13 Mono-Fc VHH (Fc fusion, not shown: a dimerising Fc or GST)
chain: QVQLQESGGGSVQPGGSLRLSCAASGFTFSTYDMSWVRQAPGKGLEWVSTINYSGSSTYYVDSVLGRFTIARDNAKNTLYLQMNNLQTEDTAVYYCASVKERRSNGHPIVFGDRGQGTQVTVSS
B11: mgp130_VHH16 Mono-Fc VHH (Fc fusion, not shown: a dimerising Fc or GST)
chain: QVQLQESGGGLVQPGGSLRLSCAASGFTFRNYAMSWVRQAPGKGLEWVSAINSGGGSTYYADSVKGRFTISRDNAKNTLYLQMNSLKPEDTAMYYCAKHVTGDYDPSLRYEYNYWSQGTQVTVSS
B12: mgp130_VHH5 Mono-Fc VHH (Fc fusion, not shown: a dimerising Fc or GST)
chain: QVQLQESGGGSVQAGGSLRLSCVISGFTYRQTFMGWFRQVVGKEREGVAAISTGGGSTIYADSVKGRFTISQDSSKDTVYLEMNGLKLEDTGMYYCAASTVITSESINRNLYQYWGQGTQVTVSS
B13: mgp130_VHH6 (VHH)
VHH: QVQLQESGGGLVQPGGSLRLSCAASGFTLSTYWMYWVRQAPGKGPEWVSAVSRGGFNTYYADSVKGRFTISRDNAKNTVYLQMNSLKPEDTAVYYCMSSVSFYGWPPDRVPSPTGQGTQVTVSS
notes: As periplasmic extract of the phage clone; also called anti-mouse gp130 VHH; not shown: HA/His tag of the pMECS phagemid
B14: mgp130_VHH13 (VHH)
VHH: QVQLQESGGGSVQPGGSLRLSCAASGFTFSTYDMSWVRQAPGKGLEWVSTINYSGSSTYYVDSVLGRFTIARDNAKNTLYLQMNNLQTEDTAVYYCASVKERRSNGHPIVFGDRGQGTQVTVSS
notes: as for B13

Biological target: T1, hGP130-his (Sino Biological, Catalog# 10974) (human, UniProt P40189 23-619)
T1 construct: Bought reagent; also called extracellular domain of gp130; not shown: C-terminal poly-His tag
T1 sequence: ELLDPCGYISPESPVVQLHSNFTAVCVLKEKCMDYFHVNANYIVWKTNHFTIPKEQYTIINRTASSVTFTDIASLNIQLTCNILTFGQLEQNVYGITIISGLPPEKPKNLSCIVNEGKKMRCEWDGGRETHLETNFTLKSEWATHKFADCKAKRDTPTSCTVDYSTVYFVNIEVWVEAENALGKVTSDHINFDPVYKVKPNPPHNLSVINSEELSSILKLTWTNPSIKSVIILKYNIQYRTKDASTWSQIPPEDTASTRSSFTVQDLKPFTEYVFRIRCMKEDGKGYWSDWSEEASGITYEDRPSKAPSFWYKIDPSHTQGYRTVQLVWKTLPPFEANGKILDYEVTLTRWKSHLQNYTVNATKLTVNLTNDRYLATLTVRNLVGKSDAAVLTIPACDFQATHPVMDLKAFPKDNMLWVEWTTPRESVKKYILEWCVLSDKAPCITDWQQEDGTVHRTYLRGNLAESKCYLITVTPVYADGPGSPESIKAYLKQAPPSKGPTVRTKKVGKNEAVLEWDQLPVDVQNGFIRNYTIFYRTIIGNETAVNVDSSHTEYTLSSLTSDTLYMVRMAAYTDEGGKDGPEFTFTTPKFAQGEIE
Assay: SPR (Biacore T200), Mono-Fc VHH captured on Protein A chip, hGP130-his in solution, 1:1 fit
Procedure: A representative example from each hgp130 VHH and mgp130 VHH clonotype generated in accordance with Examples 1-3 was selected for evaluation of binding via SPR as follows. […] All experiments were conducted in 10 mM Hepes, 150 mM NaCl, 0.05% (v/v) Polysorbate 20 (PS20) and 3 mM EDTA (HBS-EP+ buffer) on a Biacore T200 instrument equipped with a Protein A derivatized sensor chip (Cytiva). Mono-Fc VHH ligands were flowed at 5 μl/min for variable time ranging from 18 to 300 seconds, reaching the capture loads listed in the tables below. Following ligand capture, […], typically comprising at least five concentrations between 1 μM and 1 nM, were performed in either high performance or single cycle kinetics mode. Surface regeneration was achieved by flowing 10 mM glycine-HCl, pH 1.5 (60 seconds, 50 μL/min). Buffer-subtracted sensograms were processed with Biacore T200 Evaluation Software and globally fit with a 1:1 Langmuir binding model (bulk shift set to zero) to extract kinetics and affinity constants (kₐ, kd, KD). RMAX<100 RU indicates surface density compatible with kinetics analysis. Calculated Rₘₐₓ values were generated using the equation: Rₘₐₓ=Load (RU)×valency of ligand×(Molecular weight of analyte/Molecular weight of ligand). Surface activity was defined as the ratio of experimental/calculated Rmax.

Question: B1 was tested. Which Kd did it give?
Answer: The Kd was 33 nM.

Question: What about the koff of the same binder?
Answer: Its koff is 0.0019 s⁻¹.

Question: And the kon?
Answer: The kon was 59000 M⁻¹ s⁻¹.

Question: Which Kd does the source give for B2 here?
Answer: Its Kd is 82 nM.

Question: And the koff?
Answer: Its koff is 0.021 s⁻¹.

Question: And the kon?
Answer: The kon was 250000 M⁻¹ s⁻¹.

Question: Which results are given for B3?
Answer: Kd: 58 nM; koff: 0.0095 s⁻¹; kon: 160000 M⁻¹ s⁻¹

Question: Which results are given for B4?
Answer: Kd: 41 nM; koff: 0.0073 s⁻¹; kon: 180000 M⁻¹ s⁻¹

Question: Which Kd does the source give for B5 here?
Answer: The Kd was 44 nM.

Question: What about the koff of the same binder?
Answer: The koff was 0.0082 s⁻¹.

Question: What about the kon of the same binder?
Answer: The kon was 190000 M⁻¹ s⁻¹.

Question: With B6 as the binder, how does the Kd read?
Answer: Its Kd is 38 nM.

Question: What about the koff of the same binder?
Answer: Its koff is 0.0059 s⁻¹.

Question: And the kon?
Answer: The kon was 160000 M⁻¹ s⁻¹.

Biological target: hGP130-his (Sino Biological, Catalog# 10974) (human) (UniProt P40189)
Assay: as above

Question: With B7 as the binder, how does the Kd read?
Answer: Its Kd is 42 nM.

Question: What about the koff of the same binder?
Answer: Its koff is 0.0018 s⁻¹.

Question: What about the kon of the same binder?
Answer: Its kon is 43000 M⁻¹ s⁻¹.

Question: Which Kd does the source give for B8 here?
Answer: The Kd was 6 nM.

Question: What about the koff of the same binder?
Answer: The koff was 0.0012 s⁻¹.

Question: What about the kon of the same binder?
Answer: The kon was 200000 M⁻¹ s⁻¹.

Question: B9 was tested. Which Kd did it give?
Answer: The Kd was 229 nM.

Question: And the koff?
Answer: Its koff is 0.03 s⁻¹.

Question: What about the kon of the same binder?
Answer: The kon was 130000 M⁻¹ s⁻¹.

Question: What does the source list for B10?
Answer: Kd: 35.6 nM; koff: 0.0037 s⁻¹; kon: 110000 M⁻¹ s⁻¹

Question: With B11 as the binder, how does the Kd read?
Answer: The Kd was 17.4 nM.

Question: What about the koff of the same binder?
Answer: The koff was 0.00036 s⁻¹.

Question: And the kon?
Answer: Its kon is 21000 M⁻¹ s⁻¹.

Question: Which results are given for B12?
Answer: Kd: 90 nM; koff: 0.0081 s⁻¹; kon: 90000 M⁻¹ s⁻¹

Biological target: T2, mgp130 ECD antigen (mouse, UniProt Q00560 23-617)
T2 construct: Antigen of biopanning and PE-ELISA; The immunogen was an ECD-human IgG1 hinge-Fc fusion; also called ECD of mouse gp130; ngp130 ECD antigen (so in the source)
T2 sequence: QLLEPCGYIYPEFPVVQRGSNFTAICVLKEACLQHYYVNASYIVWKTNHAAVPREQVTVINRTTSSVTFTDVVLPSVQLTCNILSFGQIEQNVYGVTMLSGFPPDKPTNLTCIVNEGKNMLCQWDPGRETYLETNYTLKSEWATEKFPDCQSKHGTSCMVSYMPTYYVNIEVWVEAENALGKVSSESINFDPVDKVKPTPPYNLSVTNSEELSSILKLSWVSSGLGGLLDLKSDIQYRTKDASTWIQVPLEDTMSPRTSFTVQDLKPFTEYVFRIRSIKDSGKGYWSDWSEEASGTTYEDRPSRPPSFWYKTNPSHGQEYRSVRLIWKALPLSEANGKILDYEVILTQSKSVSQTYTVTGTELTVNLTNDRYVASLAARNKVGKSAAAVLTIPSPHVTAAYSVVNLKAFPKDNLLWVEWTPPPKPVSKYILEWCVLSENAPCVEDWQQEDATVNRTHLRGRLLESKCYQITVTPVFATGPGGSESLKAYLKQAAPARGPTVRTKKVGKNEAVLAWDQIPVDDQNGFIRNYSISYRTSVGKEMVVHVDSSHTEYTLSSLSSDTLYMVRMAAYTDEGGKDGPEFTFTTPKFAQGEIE
Assay: periplasmic extract ELISA (PE-ELISA) of phage clones

Question: Does B13 bind?
Answer: Result: binds

Question: Does B14 bind?
Answer: Result: binds

Reference: patent US20260176365A1 (SYNTHEKINE, published 2026)
